# B1: Mov19 IgG (antibody, from a related filing, V domains shown, part only)
# VH: QVQLQQSGAELVKPGASVKISCKASGYSFTGYFMNWVKQSHGKSLEWIGRIHPYDGDTFYNQNFKDKATLTVDKSSNTAHMELLSLTSEDFAVYYCTRYDGSRAMDYWGQGTTVTVSS
# VL: DIELTQSPASLAVSLGQRAIISCKASQSVSFAGTSLMHWYHQKPGQQPKLLIYRASNLEAGVPTRFSGSGSKTDFTLNIHPVEEEDAATYYCQQSREYPYTFGGGTKLEIK
# B2: Farletuzumab (antibody, INN chains, looked up, V domains shown)
# VH: EVQLVESGGGVVQPGRSLRLSCSASGFTFSGYGLSWVRQAPGKGLEWVAMISSGGSYTYYADSVKGRFAISRDNAKNTLFLQMDSLRPEDTGVYFCARHGDDPAWFAYWGQGTPVTVSS
# VL: DIQLTQSPSSLSASVGDRVTITCSVSSSISSNNLHWYQQKPGKAPKPWIYGTSNLASGVPSRFSGSGSGTDYTFTISSLQPEDIATYYCQQWSSYPYMYTFGQGTKVEIKR
# Tests used:
# [1] = target: human FolR1 monovalent Fc fusion, biotinylated (human) (UniProt P15328); assay: SPR Biacore, monovalent, binder captured via anti-Fab
# Chain of human FolR1 monovalent Fc fusion, biotinylated (human) (P15328 25-233 limits assumed): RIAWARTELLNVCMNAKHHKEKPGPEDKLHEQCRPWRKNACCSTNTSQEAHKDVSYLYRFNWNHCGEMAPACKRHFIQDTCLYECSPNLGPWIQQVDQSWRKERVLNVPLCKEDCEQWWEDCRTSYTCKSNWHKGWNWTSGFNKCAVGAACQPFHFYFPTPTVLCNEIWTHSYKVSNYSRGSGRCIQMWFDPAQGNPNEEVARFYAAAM
# [2] = target: cynomolgus FolR1 monovalent Fc fusion, biotinylated (cynomolgus); assay: as above
# Chain of cynomolgus FolR1 monovalent Fc fusion, biotinylated (cynomolgus) (chain, as listed by the source limits assumed, form in doubt): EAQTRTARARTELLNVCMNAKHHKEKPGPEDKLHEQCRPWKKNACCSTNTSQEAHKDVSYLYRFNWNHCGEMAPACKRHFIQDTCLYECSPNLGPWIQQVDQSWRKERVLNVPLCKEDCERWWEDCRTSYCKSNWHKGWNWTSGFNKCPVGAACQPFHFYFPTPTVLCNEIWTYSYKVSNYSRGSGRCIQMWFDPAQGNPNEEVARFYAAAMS
# [3] = target: human FolR1 monovalent Fc fusion, biotinylated (human) (UniProt P15328); assay: SPR Biacore, bivalent avidity, antigen on chip
# [4] = target: cynomolgus FolR1 monovalent Fc fusion, biotinylated (cynomolgus); assay: SPR Biacore, bivalent avidity, antigen on chip
# [5] = target: human FolR1 monovalent Fc fusion, biotinylated (human) (UniProt P15328); assay: SPR Biacore, bivalent avidity (apparent KD), antigen on chip
# [6] = target: cynomolgus FolR1 monovalent Fc fusion, biotinylated (cynomolgus); assay: as above
Binder,Kd [1] [nM],koff [1] [s⁻¹],kon [1] [M⁻¹ s⁻¹],Kd [2] [nM],koff [2] [s⁻¹],kon [2] [M⁻¹ s⁻¹],koff [3] [s⁻¹],kon [3] [M⁻¹ s⁻¹],koff [4] [s⁻¹],kon [4] [M⁻¹ s⁻¹],Kd [5] [nM],Kd [6] [nM]
B1,0.55,0.000159,289000,0.65,0.000193,297000,0.000121,861000,0.000139,1.29e+06,0.14,0.108
B2,,0.023,417000,67.3,0.0373,553000,0.0009,1.23e+06,0.000868,1.33e+06,,0.65
